From the RNAGym collection of RNA variant scans (doi:10.1073/pnas.2313332121)

B1: TPR t1 (parent)
chain: GACCAAUCUGCCCUCAGAGCUCGAGAACAUCUUCGGAUGCAGAGGAGGCAGGCUUCGGUGGCGCGAUAGCGCCAACGUCCUCAACCUCCAAUGCAUCCCACCACAUGAUGAUGCCUGAAGAGCCUUGGUUUUUUG

Variants of: B1
Assay: polymerase ribozyme fitness, log enrichment relative to wild type (log ratio); higher = more active; in vitro selection for triplet polymerase activity
Method in brief: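 Libraries of mutants in each subunit of a heterodimeric triplet polymerase ribozyme were generated by PCR and transcribed. In triplicate, each went through one in vitro selection round: annealing with biotinylated primer, partner subunit and triplets; frozen incubation at −7 °C; gel excision of extended constructs; streptavidin-bead capture; RT-PCR. Fitness, taken from Illumina sequencing of input and output libraries, is the logarithm of a genotype's enrichment over wild-type enrichment, averaged across replicates with inverse-variance weights. The logarithm is base 2, and genotypes needed ≥10 input reads and ≥1 read per output to be kept.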

In order of rising “polymerase ribozyme fitness (log ratio)” value:
1. GACCAAUCUGCCCUCAGAGCUCGAGAACAUCUUCGGAUGCAGAGGAGGCACGCUUCGGUGUCGAGAUAGCGCCAACGUACUCAACCUCCAAUGCAUCCCACCACAUGAUGAUGCCUAAAGAGCCUUGGUUUUGUG [G51C G61U C64A C79A G117A U133G]  -6.91
2. GACCAAUCUGCCCUCAGAGCUCGAGAACAUCUUCGGAUGCAGAGGAGGCAGGCUUCGGUGCCGCGAUAGCGCCAACGGCCUCAACCUCCAAUGCAUCCCACCACAUGAUGAAGCCUGAAGAGCCUUGAUUUUUUG [G61C U78G U112A G128A]  -6.61
3. GACCUAUCUGCCUUCAGAGCUCGAGAACAUCUUCGGAUGCAGAGGAGGCAGGCUUCGGUGGCGCGAUAGCGCCAACGGCCUAAACCUCCAAUGCAUCCCACCAUAUGACGAUGCCUGAAGAGCCUUGGUUUUUUG [A5U C13U U78G C82A C104U U109C]  -6.49
4. GACCAAUCUGCCCUCAGAGCUCGAGAACAUCUUCGGAUGCAGAGGAGGCAGGCUUAGGUGGAGCGAUAGCGCCAACGUACUCAACCUCCAAUGCAUCCCACCACAUGAUGAUGCCUGAAGAGCCUUGGUUUUUUG [C56A C62A C79A]  -6.19
5. GACCAAUCUGCCCUCAGAGCUUGAGAACAUCUUCGGAUGCAGAGGAGGCAGGCUUCGGUGGCGCGAUAGCGCCAACGUCCUCAACCUCCAUUGCAUCCCACCACAUGAUGAGGCCUGAAGAGCCUUGGUUUUUUG [C22U A91U U112G]  -6.06
6. GACCAAUCUGCCCUCAGAGCUCGAGAACAUCUUCGGAUGCAGAGGAGGCAGGCUUCGGUGGCGCGAUAGGGCCAACGUCCUCAACCUCCAAUGCAUCCCUCCACAUGAUGAUGCCUACAGAGCCUUGGUUUUUUG [C70G A100U G117A A118C]  -6.05
7. GACCAAUCUGCCCUCAGAGCUCGAGAACAUCUUCGGAUGCAGAGGACGAAGGCUUCGGUGGCGCGAUAGAGCCAACGUCCUCAACCUCCAAUGCAUCCCACCACAGGAUGAUGCCUGAAGAGCCUUGGUUUUUUG [G47C C49A C70A U106G]  -5.44
8. GACCAAUCUGCCCUCAGAGCUCGAGAACUUCUUCGGAUGCAGAGGAGGCAGGCUUCGGUGGCGCGAUAGCGUCAACGUCCUCAACCUCCAAUGCAUCCCACUACAUGAUGAUGCCUGAAGAGCCUUGGUUUUUUG [A29U C72U C102U]  -5.4
9. GACCAAUCUGCCCUCAGAGCUCGAGAACAUCUUCGGAUGCAGAGGAGGCAGGCGUCGGUGGCGCGAUAGCGCCAACGUCCUCAACCUCCAAUGCAUCCCACCACAUUAUGAUGCCUGAAGAGCCUUGGUUUUUUG [U54G G107U]  -5.37
10. GACCAAUCUGCCCUCAGAGCUCGAGAACAUCUUCGGAUGCAGAGGUGGCAGGCUUCGGUGGCCCGAUAGCGCCAAAGUCCUCAAACUCCAAUGCAUCCCACCACAUGAUGAUGCGUGAAGAGCCUUGGUUUUUUG [A46U G63C C76A C85A C115G]  -5.34
11. GACCAAUCUGCCCUCAGAGCUCGAGAACAUCUUCGGAUGCAGAGGAGGCAGGCUUCGGUGGCGCGAUAGCGCCAACGUCCUCAACCUGCAAUGCAUCCCACCACAUGAUGAUGCCUCAAGAGCCUUGGUUUUUUG [C88G G117C]  -4.47
12. GACGAAUCUGCCCUCGGAGCUCGAGAACAUCUUCGGAUGCAGAGGAGGCAGGCUUCGGUGGCGCGAUAGCGCCAACGUCCUCAACCUCCAAUGCAUUCCACCACAUGAUGAUGCCUGAAGAGUCUUAGUUUUUUG [C4G A16G C97U C123U G127A]  -4.37
13. GAACAAUCUGCCCUCAGAGCUCGAGAACAUCUUCGGAUGCAGAGGAGGCAGGCUUCGGUGGCGCGAUAGCCCCAACGUCCUCAACCUCCAAUGCAUCCCACCACAUGAUGAUGGCUGAAGAGCCUUGGUUUUUUG [C3A G71C C114G]  -4.21
14. GACCAAUCUGCCCUCUGAGCUCGAGAACAUCUUCGGAUGCAGAGGAGGCAGGCUUGGGUGGCGCGAUAGCGCCAACGUCCUCAACCUCCAAUGCAUCCCACCACAUGAUGAUGCAUGAAGAGCCUUGGUUUUUUG [A16U C56G C115A]  -4.04
15. GACCAAGCUACCCUCAGAGCUCGAGAACAUCUUCGGAUGCGGAGGAGGCAGGCUUCGGUGGCGCGAUAGCGCCAACGUAAUCAACCUCCAAUGCAUCCCACCACAUGAUGAUGCAUGAAGAGCCUUGGUUUUUUG [U7G G10A A41G C79A C80A C115A]  -3.95
16. GACCAAUCUGCCCUCAGAGCUCGAGGACGUCUUCGGAUUCAGAGGAGGCAGGCUUCGGUGGCGCGAUAGCGCCAACGUCCUCAACCUCCAAUGCAUCCCACCACAUGAUGAUGCCUGAAGAGCCUUGGUUUUUUG [A26G A29G G39U]  -3.81
17. GACCAAUCUGCCCUCAGAGCUCGAGAACAUCUUCGGAUGCAGAGGUGGCAGGCUUCGGUGGCGCGAUAGCCCUAACGUCCUCAACCUCCAAUGCAUCCCACCACAUGAUGAUGCCUGAAGAGCCUUGGUUUUUUG [A46U G71C C73U]  -3.63
18. GACCAAUCUGCCCUCAGAGCUCGAGAACAUAUUCGGAUGCAGAGGAGGCAGGCUUCGGUGGCGCGAUAGCGCCAACGUCCUCAACCUCCAAUGCAUCCCACCACAUGAUGAUGCCUGAAGUGCCUUGGUUUUUUG [C31A A121U]  -3.46
19. GACCAAUCUGCCUUCAGAGCUCGAGAACUUCUUCGGAUGCAGAGGUGGCAGGCUUAGGUGGCGCGAUAGCGCCAACGUCCUCAACCUCCAAUGCAUUCCACCACAUGAUGAUGCCUGAAGAGCCUUGGUUUUUUG [C13U A29U A46U C56A C97U]  -3.44
20. GACCAAUCUGCCCUCAGAGCUCGAGAACAUCUUCGGAUGCAGAGGAGGCAGGCUUCGGUGGCGCGAUAGCGCCAACGUCCUCAGCCUCCAAUGCAUCCCACCACAGGAUGAUGCCUGAAGAGCCUUGGUUUUUUG [A84G U106G]  -3.32
21. GACCAAUCUGCCCUCAGAGCUCGAGAACUUCUUCGGAUGCAGAGGCGGCAGGCUUCGGUGGCGCGAUAGCGCCAACGUCCUCAACCUCCAAUGCAUCCCACCACAUGAUGAUGCCUGAAGAGCCUUGGUUUUUUG [A29U A46C]  -3.27
22. GACCAAUCUGGCCUCAGAGCUCGAGAACAUCUUCGGAUGCAGAGGAGCCAGGCUUCGGUGGCGCGGUAGCGCCAACGUCCUCAACCUCCAAUGCAUCCCACCACAUGAUAAUGCCUGAAGAGCCUUGGUUUUUUG [C11G G48C A66G G110A]  -3.11
23. GACCAAUCUGCCCUCAGAGCUCGAGAAGAUCUUCGGAUGCAGAGGAGGCAGGCAUCGGUGGCGCGAUAGCGCCAACGUCCUCAACCUCCAAUGCAUCCCACCACAUGAUGAUGCCUGAAGAUCCUUGGUUUUUUG [C28G U54A G122U]  -2.85
24. GAUCAAUCUGCCCUCAGAGCUCGAGAACAUCUUAGGAUGCAGAGGAGGCAGGAUUCGGUGGCGCGAUAGCGCCAACGUUCUCAACCUUCAAUGCAUUCCACCACAUGAUGAUGCCUGAAGAGCCUUGGUUUUUUG [C3U C34A C53A C79U C88U C97U]  -2.66
25. GACCAAUCUGCCCUCAGAGCUCGAGAACAUCUUCGGAUGCAGAGGAGGCAGGCUUCGGUGGCGCGAUAGCGCCAACGUCCUCACCCUCAAAUGCAUCCCACCACAUGAUGAUACCUGAAGAGCCUUGGUUUUUUG [A84C C89A G113A]  -2.63
26. GACCAAUCUGCCCUCAGAGCUCGAGAACAUCUUCGGAUGCAGAGGAGGCAGGCUUCGGUGGCGCGAUAACGCCAACGUCCUCAACCUCCAAUGCAUCCCACCACAUGAUGAUGCCUGAAGAUCCUUGGUUUUUUG [G69A G122U]  -2.62
27. GACCAAUCUGCCCUCAGAGCUCGAGAACAUCUUCGGAUGCAGAGGAGGCAGGCUUCGGUGGCGCGAUAGCACCAACGUCCUCAACCUCCAAUGGAUCCCACCACAUGAUGAUGCCUGAAGAGCCUUGGUUUUUUG [G71A C94G]  -2.57
28. GACCAAUCUGCCCUCAGAGCUCGAGAACAUCUUCGGAUGCAGAGGAGGCGGGCUUCGGUGGCGCGAUAGCGCCAACGUACUCAACCUCCAAUGCACCCCACCACAUGAUGAUGCCUGAAGAGCCUUGGUUUUUUG [A50G C79A U96C]  -2.32
29. GACCAAUCUGCCCUCAGAGCUCGAGAACAUCUUCGGAUGCAGAGGAGGCAGGCUUCGAUGACGCGAUAGCGCCAACGUCCUCAACCUCCAAUACAUCCCACCACAUGAUGAUCCCUGAAGAGCCCUGGUUUUUUA [G58A G61A G93A G113C U125C G135A]  -2.01
30. GACCAAUCUGCCCUCAGAGCUCGAGAACAUCUUCGGAUGCAGAGGAGGCAGGCUUCGGUGCCGCGAUAGCGCCAACGUCCUUAACCUCCAAUGCAUCCCACCACAUGAUGAUGCCUGAAGAGCCUUGGUUUUUUG [G61C C82U]  -1.83
31. GACCAAUCUGCCCUCAGAGCUCGAGAACAUCUUCGGAUGCAGAGGAGGCAGUCUUCGGUAGCGCGAUAGCGCCAACGUCCUCAACCUCCAAUGCAUCCCACCACAUGAUGAUGCCUGAAGAGCCUUGGUUUUUUG [G52U G60A]  -0.943
32. GACCACUCUGCCCUCAGAGCUCGAGAACAUCUUCGGAUGCAGAGGAGGCAGUCUUCGGUGGCACGAUAGCGCCAACGUCCUCAACCUCCAAUGCAUCCCACCACAUGAUGAUGCCUGAAGAGCCUUGGUUUUUUG [A6C G52U G63A]  -0.684
33. GACCAAUCUGCCCUCAGAGCUCGAGAACAUCUUCGGAUGCAGAGGAGGCCGGCUUCGGUGGCGUGAUAGCGCCAACAUCCUCAACCUCCAAUGCAUCCCACCACAUGAUGAUGCCUGAAGAGCCUUGGUUUUUUG [A50C C64U G77A]  -0.681
34. GACCAAUAUGCCGUCAGAGCUCGAGAACAUCUUCGGAUGCAGAGGAGGCAGGCUUCGGUGGCGCGAUAGCGCCAACGUCUUCAACCUCCAAUGCAUCCCACCACAUGAUGAUGCCUGAAGAGCCUUGGUUUUUUG [C8A C13G C80U]  -0.499
35. GACCAAUCUGCCCUCAGAGCUCGAGAACAUCUUCGGAUGCAGAGGAGGCAGGCUUCGGUGGCGCGAUAGUGCCAACGUCCUCUACCUCCAAUGCAUCCCACCACAUGAUGAUGCCUGAAGAGCCUUGGUUUUUUG [C70U A83U]  -0.296
36. GACCAAUCUGCCCUCAGAGCUCGAGAACAUCUUCGGAUGCAGAGGAGGCAGGCUUCGGUGGCGCGAUAGCGCCAACGUCCUCAACCUCCAAUGCAUCCCACCACAUGAUGAUGCCUUAUGAGUCUUGGUUUUUUG [G117U A119U C123U]  -0.29
37. GACCAGUCUGUCCUCAGAGCUCGAGAACAUCUUCGGAUGCAGAGGAGGCAGGCUUCGGUGGCGCGAUAGCGCCAACGUCCUCAACCUCCAAUGCAUCCCACCACAUGAUGAUGCCUGAAGAGCCUUGGUUUUUUG [A6G C11U]  -0.107
38. GACCAAUCUGCCCUCAGAGCUCGAGAACAUCUUCGAAUGCAGAGGAGGCAGGCUUCGGUGGCGCGAUAGCGCCAACGUCCUCAACCUCCAAUGCAUCCCACCACAUGAUGAUGCCUGAAGUGCCUUGAUUUUUUG [G36A A121U G128A]  0.119
39. GACCAAUCUGCCCUCAGAGCUCGAGAGCAUCUUCGGUUGCAGAGGAGGCAGGCUUCGGUGGCGCGAUAGCGCCAACGUCCUCAACCUCCAAUGCAUCCCACCACAUGAUGAUGCCUGAAGGGCCUUGGUUUUUUG [A27G A37U A121G]  0.646
40. GACCAAUCUGCCCUCAGAGCUCGAGAACAUCUUCGGAUGCUGAGGAGGCAGGCCUCGGUGGCGCGAUAGCGCCAACGUCCUCAACCUCCAAUGCAUCCCACCACAUGAUGAUGCCUGAAGAGCUUUGGUUUUUUG [A41U U54C C124U]  1
41. GACCAAUCUGCGCUCAGAGCUCGAGAACAUCUUCGGAUGCAGAGGAGGCAGGCUUCGGUGGCGCGAUAGCGCCAACGUCCUCAACCUCCAAUGCAUCCCACCACAUGAUGAUGCCUGAAGAGUCUUGGUUUUUUG [C12G C123U]  1.34
42. GACCAAUCUGCCCUCAGAGCUCGAGAACAUCUUCGGAUGCAGAGGAGGCAGGCUUCGGUGGCGCGAUAGCGCCAACGCCCUCAACCUUCAAUGCAUCCCACCACAUGAUGAUGCCUGAAGAGGCAUGGUUUUUUG [U78C C88U C123G U125A]  1.82
